Values quoted from earlier work as cited in paper PMC6685676.
Where two headings read alike, the source gives them in different places.

What was measured:
[1] = biological target: angiotensin III (Homo sapiens) (UniProt P01019)
[2] = biological target: angiotensin III (Homo sapiens) (UniProt P01019); remark: listed apart in the source

Sequence of UniProt P01019 (P01019 whole entry, looked up): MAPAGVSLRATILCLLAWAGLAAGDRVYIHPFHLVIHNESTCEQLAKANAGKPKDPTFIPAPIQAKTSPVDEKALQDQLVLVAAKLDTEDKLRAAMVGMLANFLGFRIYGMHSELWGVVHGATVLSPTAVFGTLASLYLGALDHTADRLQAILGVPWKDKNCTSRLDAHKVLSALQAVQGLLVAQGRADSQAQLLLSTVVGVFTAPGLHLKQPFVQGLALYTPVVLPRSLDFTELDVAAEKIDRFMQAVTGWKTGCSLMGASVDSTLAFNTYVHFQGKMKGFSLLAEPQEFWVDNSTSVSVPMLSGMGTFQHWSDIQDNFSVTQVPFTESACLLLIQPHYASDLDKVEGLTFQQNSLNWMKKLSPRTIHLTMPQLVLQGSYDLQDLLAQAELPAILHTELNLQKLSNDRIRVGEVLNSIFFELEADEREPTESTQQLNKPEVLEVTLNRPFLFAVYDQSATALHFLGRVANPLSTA

Row | Ki [1] [nM] | Ki [2] [nM] | Substance
1 | 88 | – | DPP3 (from UniProt Q9NY33)
2 | – | 24 | DPP3 (from UniProt O55096)
